From a protein production outcome set (Wang et al. 2014)

Assay: label from the status in PepcDB records

## MTGFDADDAAALIQSYVDDHGLLSFLGVSVEDASDGEMRLRIPYHEKLTNHGPGEGDVHGGIAATLIDTAGGLAVRSALPKPVAANVATIDLNVSYLRPARGDLIADASVVRVGSTVGVAEISVVTPADTADAEPTEVAVGRGSFRVFRDDLEHHHHHH
  protein production: failed

## MARDALTDALTVGELRRRVHALVLGKRQRVYSGAMFLVEVVHHPELSAMLGLEDNKLLLAMIAQRLQMQSDYFQVARHSSDSFMVWAPDLDPRSARDVAPEVLDALSQPYELRGQPLIVGFRLSGALYAQHGACFDELERSLHIAMLHLDESAGAAWNMFEPSMLEHQRHYQGLEHHHHHH
  protein production: failed

## APTSSNDTGKTVVAVTACPTGIAHTYMAAEKLQETANKLGVRIKVETNGSRGVENRLTDKEIAEADGVIIAADVQVDMPRFDGKHLIAKPVAAGIHKPEELIKEAISGNAPVYKAESGSEATEST
  protein production: not failed

## MFQYRFKRSFSSDPNLSDTIGDRLFDLMEATFPGLNDLAECGRKLGAPWEKASTPFIRFHDDVAITHVGVLEIPMVILGQRVTVGGIHGVATREEFRRRGYYREVMEEALEYCDQIYETLVLTTPEPEYYLPFGFRVVEEYIFH
  protein production: failed

## MTVVSVDKDVEALSFSIVAEFDADVKRVWAIWEDPRQLERWWGPPTWPATFETHEFTVGGKAAYYMTGPDGTKARGWWQFTTIEAPDHLEFDDGFADEHGAPVDELGVTHATVKLEPLENRTRMTIISTFESEEQMQKMAEMGMEEGMREAIEQIDAVLSEPANALEHHHHHH
  protein production: not failed

## MEAVIFDMDGVLMDTEPLYFEAYRRVAESYGKPYTEDLHRRIMGVPEREGLPILMEALEIKDSLENFKKRVHEEKKRVFSELLKENPGVREALEFVKSKRIKLALATSTPQREALERLRRLDLEKYFDVMVFGDQVKNGKPDPEIYLLVLERLNVVPEKVVVFEDSKSGVEAAKSAGIERIYGVVHSLNDGKALLEAGAVALVKPEEILNVLKEVL
  protein production: not failed

## MNINIEDLIFSLDIGTRTVIGTVGSIKDKKFSVIAEKHTEHEERAMVDGQIHDINLVARAVNKVKSQIEEELGFELKDVAIAAAGRFLRTTAVRSELNIDEDKEIDKDVIRGLELTAVKKAQDEVNKETEGKLYCVGYSVKNYFLNGYAISNLLSHKGNSIAVDVIATFLPRSIVESLYAVMNKVNLNVKSLTLEPIAAMEAAVPKNLRLLNIALLDVGAGTSDIAISSKDTISAYGMVPFAGDEITEVIAQNYLVDFNTAENIKRSCNVDTEIKYTDVLGIENTIKSEEVIKLIQPTVQKLAEEVANKIIELNGEKSPNAVFIVGGGAHTPMLKDLLAENLKIQPQRLAIKGRESVTDCICTDNSLGSTGVTVLGIALVAIRRFGNDFIDVILNDNIISLFNARVHTVKDVVVQAGVNPKLLIGKNGKNVRFILNGVKRVAFGTVAKNAEIRINGLIANIDSEVKENDKIEIKYAENGIDASPIIKDYVKNLYSLGFFIDDEVVNLEPIFIINGNKVTIDTEISEGDEVETVYPSKLIHYIRYYDSDLNKEYYINNIKLDENYDIKEGDRIYTKPKEEEQEVEIIPLAEEDKEEQEVVSHPKEIEKEDDDVNTIVVVVNGNPIKMSGKEKYKFVDIFDYFKFDLTQVKGNLVLTLNGEKVSFFDELHDKDIIEVKWE
  protein production: failed

## MNIVLFHSTLGPRPAVRQAADRLRDAGHQVWTPDLFEGRTFDTVEEGMAHQDGIGREELLKRAVLAAAPYSERGLVYAGFSLGASIAQTLALGDHRARGLLLLHGTSDLAPNASVDELPVQLHVAEPDPFETDDWLSAWYLQMGRIGADVEVHRYPGAGHLYTDPGLDDYDAEAAEATWRVALGFLESLQEAQAGE
  protein production: failed

## MGWFFVFCAAISEIVGVIGLKMYSKDKTLANGAIYIGGFATSFAFLYTSFLFLQVSVAYAVWIGIGTAGAVLLNMFLFGESKSKARIISVFLIVCGVTGLKALS
  protein production: failed

## AIASQFDPDKFKQEQKARWNQGARSTWTLWKQTQVEDTPAKFFLGLVPIRPGVKVLDLACGSGETSLQVAQLVSSHLPSDSKDAKIVCVDISEEMLRVLSQRAQELGLSSVVETCCEDAENINFGTHYFDMVMSQFGVMFLPHLPEDLANIRKMMKPGSLFCCVVWGEEKDCHIFYAARSVVSPPPPPPGTPVSYGTKEKVMEALRKAEFSDVKAVEFQVVHETKDAEEYITLMSGVNQWLEKSLGEKGSGPWQKLVEYCNNSYRTSRGTLQFPNVCVGITAIA
  protein production: failed

## GSHFYFLSKRRRNLLRNPCGEEDLEGWSDVEHGGDGWKVEELPGDNGVEFTQDDSVKKYFASSFEWCRKAQVIDLQAEGYWEELLDTTQPAIVVKDWYSGRTDAGSLYELTVRLLSENEDVLAEFATGQVAVPEDGSWMEISHTFIDYGPGVRFVRFEHGGQDSVYWKGWFGARVTNSSVWVEP
  protein production: not failed

## MENSLNQNKVWGWGELALMYFPNISQKSATMQLLKWIRVSDELVGQLEKSGWHPGKKYLTPRQKDYIVGHLGEP
  protein production: failed

## MSLESLFQHIIFTEHQAEESRRLMREVRSEITRCREKIKKATEELNEEKIKLESKVQQFFEKSFFLQLLKAHENALEKQYSEITNHRNMLLQTFEAIKKQMIEEEDKFIKEITDFNNDYEITKKRELLMKENVKIEISDLENQANMLKSEMKSMEHDSSQLNELQKQKSELIQELFTLQRKLKVFEDEENESICTTKYLEAEKIKISEKPQNDTECLRLKKELELYKEDDMESVYEALQTEIEFLELTLAQKDLQESK
  protein production: failed

## MARSSSFLDNLLTSPSTERYRVGLSVLFLLCVWLVVGSFSQGLPNAMLLMAAAVIGGYMAINIGANDVANNVGPAVGSGALSLGAAVLLAAVFEAAGALIAGGDVVSTIKGGIIDPTSLEDPRAFVWLMTAALLAGALWLNLATWMGAPVSTTHSIVGGVLGAGIAAGGWAIADWAVMGKIAASWVISPVLGGALAALFLFAIKKTVLYRQNLVSSARTFVPWLVAIMAWAFATYLMIKGVKKIVKVDMVEASVIGLIVAGVVFFVMRTLVGRKASTMENSAQGVNTLFTWPLIFAAALLSFAHGANDVANAIGPLAAINDAIQAGGGVVTSAKIPLWVMLVGALGLAVGLMLFGPRLIKTVGSEITELDKTRAFCIALSAALTVILASQLGLPVSSTHIAIGGVFGVGFLREYLKSNYATQLHKIIEQHDPTDQERLKPFLDDFRNASVEEMEKLLKQAKKKKQQVPLSKSERKRLKKIYREEMVKRSHLVKIAAAWIITVPASAIMAAFLFFTLRGLMV
  protein production: failed

## MRPMASELTTFVLIFGTLLFVFGLFSRKIEGTVVTIQMIFLAAGILLSPIGLNLISLSPRSGLVLGVIKVALVLTFFSDASLIGLHSLFLKERLSVRLLFLGLSLTICLGTVFAALLFADITFIDAILLGIILAPTDASLAQKVVEERQVPTLIRNGLIIESGLNDGAVMPLFIFVVALEAVEKLNRPLGTFLAIALEQIGFGIFVGIIIGLVGGWLFSRAFKAGSMSEVYYRTEFVALALISWLVADGVGGNGFIAAFIAGLATRIEDRQVTEEEVILLPRAEGNVLNLAVLFILGVMSAEYLPLVDLKIFAYAVLSLTVVRMVPVTISLIGSHLNIKTGLFMGWFGPRGLASIVLMLITVERIEGIRVSGTIGLAVITTVIISVFAHGITAGPVSNWYARIIATLPPDAPEKESVEELTALQGIETTENIHKEPY
  protein production: failed

## DKMDGAPSRVLHIRKLPGEVTETEVIALGLPFGKVTNILMLKGKNQAFLELATEEAAITMVNYYSAVTPHLRNQPIYIQYSNHKELKT
  protein production: not failed

## MSFRTGERRIWDATATLEALGAADVALWIWEPETDRLRLNGAARALGLGPLAPECSSAAFRALALPQDRAQAEEVLKPREPGSEVVARFRVRGGETCLWRGVWLEEGVRAAGVVAPETKFSASELCDLTGLLDRRSFLARARERLAQEGTHQLVVADLDRLRRLNEALGHERADLVLAALGSRLAAAFPAQSILGRIGEDEFAVLCQPLGYEPSDVLRSALEQPLRVAGFDIHPTLSIGAVSAEGGLDAPDAAELLRRAELAVEAAAAAGRGGAAAYGRAMETDGLSRLALEADLRGAIGRGEITPYFQPIVRLSTGALSGFEALARWIHPRRGMLPPDEFLPLIEEMGLMSELGAHMMHAAAQQLSTWRAAHPAMGNLTVSVNLSTGEIDRPGLVADVAETLRVNRLPRGALKLEVTESDIMRDPERAAVILKTLRDAGAGLALDDFGTGFSSLSYLTRLPFDTLKIDRYFVRTMGNNAGSAKIVRSVVKLGQDLDLEVVAEGVENAEMAHALQSLGCDYGQGFGYAPALSPQEAEVYLNEAYVDGAAPVKARG
  protein production: failed
